Measurements taken from PMC4405576, “The Crystal Structure and Small-Angle X-Ray Analysis of CsdL/TcdA Reveal a New tRNA Binding Motif in the MoeB/E1 Superfamily” (PLoS ONE, 2015).

Experiments:
CsdL/TcdA = target: T1, CsdL/TcdA (Escherichia coli, UniProt Q46927); assay: X-ray crystallography; details: crystals in 0.05 M potassium phosphate, 10% PEG1000, basic pH, 20 °C; 1.77 Å; K+ and Na+ bound; nucleotide-binding site crystallisation; 1.89 Å; AMP as obtained directly from the cell (co-purified); n
T1 sequence (Q46927 1-268): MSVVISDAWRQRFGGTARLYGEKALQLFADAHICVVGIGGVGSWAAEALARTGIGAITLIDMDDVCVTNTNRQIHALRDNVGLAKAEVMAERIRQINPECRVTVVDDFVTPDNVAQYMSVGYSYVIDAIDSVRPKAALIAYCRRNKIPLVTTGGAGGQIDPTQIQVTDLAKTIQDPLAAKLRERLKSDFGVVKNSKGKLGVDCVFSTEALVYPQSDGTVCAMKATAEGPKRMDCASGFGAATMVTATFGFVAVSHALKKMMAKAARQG

[1] = tested on: TcdA (CsdL) (Escherichia coli); assay: intrinsic fluorescence quenching; details: native tRNA modifications possible, not determined
[2] = target: tRNA threonylcarbamoyladenosine dehydratase A (TcdA) (E. coli) (UniProt Q46927); assay: SEC; analytical gel filtration of TcdA alone; data not shown
[3] = target: tRNA threonylcarbamoyladenosine dehydratase A (TcdA) (E. coli) (UniProt Q46927); assay: AUC; sedimentation velocity and sedimentation equilibrium, 20°C, 20 mM HEPES, 100 mM KCl, 50 mM NaCl, pH 7.4; TcdA alone
[4] = target: tRNA threonylcarbamoyladenosine dehydratase A (TcdA) (E. coli) (UniProt Q46927); assay: SAXS; purified TcdA, batch setup, three concentrations between 0.5-5 mg/ml, 5°C, 20 mM sodium/potassium phosphate pH 7.4, 300 mM NaCl, 2 mM β-mercaptoethanol

Q: Which X-ray crystallography (CsdL/TcdA) does the source give for `Nc1ncnc2c1ncn2[C@@H]1O[C@H](COP(=O)(O)O)[C@@H](O)[C@H]1O` [AMP] here?
A: Its X-ray crystallography is “the nucleotide-binding residues stabilize AMP in a manner analogous to ATP”.

Q: How did the Kd [1] turn out when tRNALys(UUU), overexpressed in E. coli was run?
A: The Kd was 3000 nM.

Q: “tRNA threonylcarbamoyladenosine dehydratase A (TcdA) (from UniProt Q46927 1-268) (enzyme)” was tested. Which stoichiometry N [2] did it give?
A: The stoichiometry N was 2.

Q: What about the stoichiometry N [3] of the same compound?
A: The stoichiometry N was 2.

Q: And the stoichiometry N [4]?
A: The stoichiometry N was 2.
